{
  "source": "paper PMC7367873",
  "about": "“Dissecting the sequence determinants for dephosphorylation by the catalytic subunits of phosphatases PP1 and PP2A” (Nature Communications, 2020)",
  "key": {"[1]": {"tested_on": "GFP-14-3-3β and its binding proteins", "assay": "GFP-14-3-3β co-IP with LC-MS/MS label-free quantification, untreated versus PP1c-treated", "parameters": "species or system human", "settings": "pairwise comparison PP1 vs untreated, 3 replicates each"}, "GFP-14-3-3β": {"tested_on": "GFP-14-3-3β", "assay": "GFP-14-3-3β co-IP with LC-MS/MS, untreated GFP-14-3-3β versus GFP control (14-3-3 interactome)", "format": "binding, human", "settings": "3 replicates each"}, "[2]": {"settings": "student's t-test, LC-MS/MS label-free quantification"}, "[3]": {"settings": "pairwise comparison untreated GFP-14-3-3β vs GFP, student's t-test, LC-MS/MS label-free quantification"}},
  "data": [
    {"molecule": "HDAC7 (protein, UniProt Q8WUI4 1-952, looked up) Histone deacetylase 7: MDLRVGQRPPVEPPPEPTLLALQRPQRLHHHLFLAGLQQQRSVEPMRLSMDTPMPELQVGPQEQELRQLLHKDKSKRSAVASSVVKQKLAEVILKKQQAALERTVHPNSPGIPYRTLEPLETEGATRSMLSSFLPPVPSLPSDPPEHFPLRKTVSEPNLKLRYKPKKSLERRKNPLLRKESAPPSLRRRPAETLGDSSPSSSSTPASGCSSPNDSEHGPNPILGSEALLGQRLRLQETSVAPFALPTVSLLPAITLGLPAPARADSDRRTHPTLGPRGPILGSPHTPLFLPHGLEPEAGGTLPSRLQPILLLDPSGSHAPLLTVPGLGPLPFHFAQSLMTTERLSGSGLHWPLSRTRSEPLPPSATAPPPPGPMQPRLEQLKTHVQVIKRSAKPSEKPRLRQIPSAEDLETDGGGPGQVVDDGLEHRELGHGQPEARGPAPLQQHPQVLLWEQQRLAGRLPRGSTGDTVLLPLAQGGHRPLSRAQSSPAAPASLSAPEPASQARVLSSSETPARTLPFTTGLIYDSVMLKHQCSCGDNSRHPEHAGRIQSIWSRLQERGLRSQCECLRGRKASLEELQSVHSERHVLLYGTNPLSRLKLDNGKLAGLLAQRMFVMLPCGGVGVDTDTIWNELHSSNAARWAAGSVTDLAFKVASRELKNGFAVVRPPGHHADHSTAMGFCFFNSVAIACRQLQQQSKASKILIVDWDVHHGNGTQQTFYQDPSVLYISLHRHDDGNFFPGSGAVDEVGAGSGEGFNVNVAWAGGLDPPMGDPEYLAAFRIVVMPIAREFSPDLVLVSAGFDAAEGHPAPLGGYHVSAKCFGYMTQQLMNLAGGAVVLALEGGHDLTAICDASEACVAALLGNRVDPLSEEGWKQKPNLNAIRSLEAVIRVHSKYWGCMQRLASCPDSWVPRVPGADKEEVEAVTALASLSVGILAEDRPSEQLVEEEEPMNL", "values": [
      {"measurement": "Difference (log2), PP1 vs untreated", "setting": "[1]; [2]", "result": -2.551, "unit": "log2"},
      {"measurement": "Difference (log2), untreated vs GFP", "setting": "GFP-14-3-3β; [3]", "result": 7.896, "unit": "log2"}
    ]},
    {"molecule": "SIPA1 (protein, UniProt Q96FS4 1-1042, looked up) Signal-induced …: MPMWAGGVGSPRRGMAPASTDDLFARKLRQPARPPLTPHTFEPRPVRGPLLRSGSDAGEARPPTPASPRARAHSHEEASRPAATSTRLFTDPLALLGLPAEEPEPAFPPVLEPRWFAHYDVQSLLFDWAPRSQGMGSHSEASSGTLASAEDQAASSDLLHGAPGFVCELGGEGELGLGGPASPPVPPALPNAAVSILEEPQNRTSAYSLEHADLGAGYYRKYFYGKEHQNFFGMDESLGPVAVSLRREEKEGSGGGTLHSYRVIVRTTQLRTLRGTISEDALPPGPPRGLSPRKLLEHVAPQLSPSCLRLGSASPKVPRTLLTLDEQVLSFQRKVGILYCRAGQGSEEEMYNNQEAGPAFMQFLTLLGDVVRLKGFESYRAQLDTKTDSTGTHSLYTTYQDHEIMFHVSTMLPYTPNNQQQLLRKRHIGNDIVTIVFQEPGSKPFCPTTIRSHFQHVFLVVRAHTPCTPHTTYRVAVSRTQDTPAFGPALPAGGGPFAANADFRAFLLAKALNGEQAAGHARQFHAMATRTRQQYLQDLATNEVTTTSLDSASRFGLPSLGGRRRAAPRGPGAELQAAGSLVWGVRAAPGARVAAGAQASGPEGIEVPCLLGISAEALVLVAPRDGRVVFNCACRDVLAWTFSEQQLDLYHGRGEAITLRFDGSPGQAVGEVVARLQLVSRGCETRELALPRDGQGRLGFEVDAEGFVTHVERFTFAETAGLRPGARLLRVCGQTLPSLRPEAAAQLLRSAPKVCVTVLPPDESGRPRRSFSELYTLSLQEPSRRGAPDPVQDEVQGVTLLPTTKQLLHLCLQDGGSPPGPGDLAEERTEFLHSQNSLSPRSSLSDEAPVLPNTTPDLLLATTAKPSVPSADSETPLTQDRPGSPSGSEDKGNPAPELRASFLPRTLSLRNSISRIMSEAGSGTLEDEWQAISEIASTCNTILESLSREGQPIPESGDPKGTPKSDAEPEPGNLSEKVSHLESMLRKLQEDLQKEKADRAALEEEVRSLRHNNRRLQAESESAATRLLLASKQLGSPTADLA", "values": [
      {"measurement": "Difference (log2), PP1 vs untreated", "setting": "[1]; [2]", "result": -2.506, "unit": "log2"},
      {"measurement": "Difference (log2), untreated vs GFP", "setting": "GFP-14-3-3β; [3]", "result": 4.698, "unit": "log2"}
    ]},
    {"molecule": "MYPN (protein, UniProt Q86TC9 1-1320, looked up) Myopalladin: MQDDSIEASTSISQLLRESYLAETRHRGNNERSRAEPSSNPCHFGSPSGAAEGGGGQDDLPDLSAFLSQEELDESVNLARLAINYDPLEKADETQARKRLSPDQMKHSPNLSFEPNFCQDNPRSPTSSKESPQEAKRPQYCSETQSKKVFLNKAADFIEELSSLFKSHSSKRIRPRACKNHKSKLESQNKVMQENSSSFSDLSERRERSSVPIPIPADTRDNEVNHALEQQEAKRREAEQAASEAAGGDTTPGSSPSSLYYEEPLGQPPRFTQKLRSREVPEGTRVQLDCIVVGIPPPQVRWYCEGKELENSPDIHIVQAGNLHSLTIAEAFEEDTGRYSCFASNIYGTDSTSAEIYIEGVSSSDSEGDPNKEEMNRIQKPNEVSSPPTTSAVIPPAVPQAQHLVAQPRVATIQQCQSPTNYLQGLDGKPIIAAPVFTKMLQNLSASEGQLVVFECRVKGAPSPKVEWYREGTLIEDSPDFRILQKKPRSMAEPEEICTLVIAEVFAEDSGCFTCTASNKYGTVSSIAQLHVRGNEDLSNNGSLHSANSTTNLAAIEPQPSPPHSEPPSVEQPPKPKLEGVLVNHNEPRSSSRIGLRVHFNLPEDDKGSEASSEAGVVTTRQTRPDSFQERFNGQATKTPEPSSPVKEPPPVLAKPKLDSTQLQQLHNQVLLEQHQLQNPPPSSPKEFPFSMTVLNSNAPPAVTTSSKQVKAPSSQTFSLARPKYFFPSTNTTAATVAPSSSPVFTLSSTPQTIQRTVSKESLLVSHPSVQTKSPGGLSIQNEPLPPGPTEPTPPPFTFSIPSGNQFQPRCVSPIPVSPTSRIQNPVAFLSSVLPSLPAIPPTNAMGLPRSAPSMPSQGLAKKNTKSPQPVNDDNIRETKNAVIRDLGKKITFSDVRPNQQEYKISSFEQRLMNEIEFRLERTPVDESDDEIQHDEIPTGKCIAPIFDKRLKHFRVTEGSPVTFTCKIVGIPVPKVYWFKDGKQISKRNEHCKMRREGDGTCSLHIESTTSDDDGNYTIMAANPQGRISCSGHLMVQSLPIRSRLTSAGQSHRGRSRVQERDKEPLQERFFRPHFLQAPGDMVAHEGRLCRLDCKVSGLPPPELTWLLNGQPVLPDASHKMLVRETGVHSLLIDPLTQRDAGTYKCIATNKTGQNSFSLELSVVAKEVKKAPVILEKLQNCGVPEGHPVRLECRVIGMPPPVFYWKKDNETIPCTRERISMHQDTTGYACLLIQPAKKSDAGWYTLSAKNEAGIVSCTARLDIYAQWHHQIPPPMSVRPSGSRYGSLTSKGLDIFSAFSSMESTMVYSCSSRSVVESDEL", "values": [
      {"measurement": "Difference (log2), PP1 vs untreated", "setting": "[1]; log2 difference, label-free quantification", "result": 1.556},
      {"measurement": "Difference (log2), untreated vs GFP", "setting": "GFP-14-3-3β; log2 difference, pairwise comparison untreated vs GFP, label-free quantification", "result": -0.08833}
    ]},
    {"molecule": "HIRIP3 (protein, UniProt Q9BW71 1-556, looked up) HIRA-interacting protein 3: MAREKEMQEFTRSFFRGRPDLSTLTHSIVRRRYLAHSGRSHLEPEEKQALKRLVEEELLKMQVDEAASREDKLDLTKKGKRPPTPCSDPERKRFRFNSESESGSEASSPDYFGPPAKNGVAAEVSPAKEENPRRASKAVEESSDEERQRDLPAQRGEESSEEEEKGYKGKTRKKPVVKKQAPGKASVSRKQAREESEESEAEPVQRTAKKVEGNKGTKSLKESEQESEEEILAQKKEQREEEVEEEEKEEDEEKGDWKPRTRSNGRRKSAREERSCKQKSQAKRLLGDSDSEEEQKEAASSGDDSGRDREPPVQRKSEDRTQLKGGKRLSGSSEDEEDSGKGEPTAKGSRKMARLGSTSGEESDLEREVSDSEAGGGPQGERKNRSSKKSSRKGRTRSSSSSSDGSPEAKGGKAGSGRRGEDHPAVMRLKRYIRACGAHRNYKKLLGSCCSHKERLSILRAELEALGMKGTPSLGKCRALKEQREEAAEVASLDVANIISGSGRPRRRTAWNPLGEAAPPGELYRRTLDSDEERPRPAPPDWSHMRGIISSDGESN", "values": [
      {"measurement": "Difference (log2), PP1 vs untreated", "setting": "[1]; [2]", "result": -2.4581, "unit": "log2"},
      {"measurement": "Difference (log2), untreated vs GFP", "setting": "GFP-14-3-3β; [3]", "result": 0.3778, "unit": "log2"}
    ]},
    {"molecule": "SAFB (protein, UniProt Q15424 2-915, looked up) Scaffold attachment factor B1: AETLSGLGDSGAAGAAALSSASSETGTRRLSDLRVIDLRAELRKRNVDSSGNKSVLMERLKKAIEDEGGNPDEIEITSEGNKKTSKRSSKGRKPEEEGVEDNGLEENSGDGQEDVETSLENLQDIDIMDISVLDEAEIDNGSVADCVEDDDADNLQESLSDSRELVEGEMKELPEQLQEHAIEDKETINNLDTSSSDFTILQEIEEPSLEPENEKILDILGETCKSEPVKEESSELEQPFAQDTSSVGPDRKLAEEEDLFDSAHPEEGDLDLASESTAHAQSSKADSLLAVVKREPAEQPGDGERTDCEPVGLEPAVEQSSAASELAEASSEELAEAPTEAPSPEARDSKEDGRKFDFDACNEVPPAPKESSTSEGADQKMSSPEDDSDTKRLSKEEKGRSSCGRNFWVSGLSSTTRATDLKNLFSKYGKVVGAKVVTNARSPGARCYGFVTMSTAEEATKCINHLHKTELHGKMISVEKAKNEPVGKKTSDKRDSDGKKEKSSNSDRSTNLKRDDKCDRKDDAKKGDDGSGEKSKDQDDQKPGPSERSRATKSGSRGTERTVVMDKSKGVPVISVKTSGSKERASKSQDRKSASREKRSVVSFDKVKEPRKSRDSESHSRVRERSEREQRMQAQWEREERERLEIARERLAFQRQRLERERMERERLERERMHVEHERRREQERIHREREELRRQQELRYEQERRPAVRRPYDLDRRDDAYWPEAKRAALDERYHSDFNRQDRFHDFDHRDRGRYPDHSVDRREGSRSMMGEREGQHYPERHGGPERHGRDSRDGWGGYGSDKRMSEGRGLPPPPRRDWGDHGRREDDRSWQGTADGGMMDRDHKRWQGGERSMSGHSGPGHMMNRGGMSGRGSFAPGGASRGHPIPHGGMQGGFGGQSRGSRPSDARFTRRY", "values": [
      {"measurement": "Difference (log2), PP1 vs untreated", "setting": "[1]; [2]", "result": -2.475, "unit": "log2"},
      {"measurement": "Difference (log2), untreated vs GFP", "setting": "GFP-14-3-3β; [3]", "result": 3.699, "unit": "log2"}
    ]},
    {"molecule": "TFEB (protein, UniProt P19484 1-476, looked up) Transcription factor EB: MASRIGLRMQLMREQAQQEEQRERMQQQAVMHYMQQQQQQQQQQLGGPPTPAINTPVHFQSPPPVPGEVLKVQSYLENPTSYHLQQSQHQKVREYLSETYGNKFAAHISPAQGSPKPPPAASPGVRAGHVLSSSAGNSAPNSPMAMLHIGSNPERELDDVIDNIMRLDDVLGYINPEMQMPNTLPLSSSHLNVYSSDPQVTASLVGVTSSSCPADLTQKRELTDAESRALAKERQKKDNHNLIERRRRFNINDRIKELGMLIPKANDLDVRWNKGTILKASVDYIRRMQKDLQKSRELENHSRRLEMTNKQLWLRIQELEMQARVHGLPTTSPSGMNMAELAQQVVKQELPSEEGPGEALMLGAEVPDPEPLPALPPQAPLPLPTQPPSPFHHLDFSHSLSFGGREDEGPPGYPEPLAPGHGSPFPSLSKKDLDLMLLDDSLLPLASDPLLSTMSPEASKASSRRSSFSMEEGDVL", "values": [
      {"measurement": "Difference (log2), PP1 vs untreated", "setting": "[1]; [2]", "result": -2.76, "unit": "log2"},
      {"measurement": "Difference (log2), untreated vs GFP", "setting": "GFP-14-3-3β; [3]", "result": 5.784, "unit": "log2"}
    ]}
  ]
}
